Results published in the supplement of paper PMC10724198.

Key:
[1] = test system: Saccharomyces cerevisiae; assay: protein stability index of tFT-peptide fusion in wild type (PSI (0-1 scale)); higher = more stable (slower turnover); details: genetic background: wild type
Description: (§1)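 MPS profiling in S. cerevisiae of two library types built from selected 12-aa C-degron peptides (IN1, IN2, LN1, LN3, VN2, R1-R5, W1-W3, Atg1 and Rpa12 C-termini): saturation mutagenesis libraries and C-terminal +1 capping libraries (13 aa). Each peptide is fused to the C-terminus of a sfGFP-mCherry timer, after a GGGS linker. Cells are FACS-sorted into 8 mCherry/sfGFP bins and sequenced. PSI runs from 0 (unstable) to 1 (stable), measured once in wild type and in the das1Δ or doa10Δ background.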

[2] = test system: Saccharomyces cerevisiae; assay: protein stability index of tFT-peptide fusion in deletion strain of DAS1 (PSI (0-1 scale)); higher = more stable (slower turnover)
Description: as §1
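Throughout, for protein stability index of tFT-peptide fusion in deletion strain of DAS1: PSI is a weighted mean of each variant's read distribution over the sorted stability bins, computed only for variants having over 10 reads in total.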
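Throughout, for protein stability index of tFT-peptide fusion in wild type: PSI derived as read-weighted mean over the 8 sorting bins, only variants exceeding 10 total reads kept, mCherry placed adjacent to the peptide and sfGFP distal.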

Sequence AAWRVGLWRGAS has a protein stability index [1] of 0.503 and a protein stability index [2] of 0.72.
For AFWRVGLWRGAS, the protein stability index [1] was 0.496 and the protein stability index [2] was 0.704.
Sequence AKWRVGLWRGAS has a protein stability index [1] of 0.392 and a protein stability index [2] of 0.692.
Work on ARARVGLWRGAS yielded a protein stability index [1] of 0.531 and a protein stability index [2] of 0.688.
ARGRVGLWRGAS showed a protein stability index [1] of 0.432 and a protein stability index [2] of 0.685.
Sequence ARWHVGLWRGAS has a protein stability index [1] of 0.365 and a protein stability index [2] of 0.71.
ARWPVGLWRGAS showed a protein stability index [1] of 0.399 and a protein stability index [2] of 0.703.
For ARWQVGLWRGAS, the protein stability index [1] was 0.444 and the protein stability index [2] was 0.656.
For ARWRFGLWRGAS, the protein stability index [1] was 0.581 and the protein stability index [2] was 0.698.
ARWRHGLWRGAS gave a protein stability index [1] of 0.666 and a protein stability index [2] of 0.685.
Sequence ARWRVGLARGAS has a protein stability index [1] of 0.707 and a protein stability index [2] of 0.692.
ARWRVGLNRGAS was tested, and the protein stability index [1] was 0.68 and the protein stability index [2] was 0.668.
ARWRVGLQRGAS gave a protein stability index [1] of 0.677 and a protein stability index [2] of 0.69.
With ARWRVGLSRGAS the protein stability index [1] was 0.669 and the protein stability index [2] was 0.695.
ARWRVGLWEGAS showed a protein stability index [1] of 0.675 and a protein stability index [2] of 0.658.
Work on ARWRVGLWPGAS yielded a protein stability index [1] of 0.71 and a protein stability index [2] of 0.689.
ARWRVGLWRAAS gave a protein stability index [1] of 0.117 and a protein stability index [2] of 0.683.
ARWRVGLWRDAS was tested, and the protein stability index [1] was 0.6 and the protein stability index [2] was 0.702.
Sequence ARWRVGLWREAS has a protein stability index [1] of 0.169 and a protein stability index [2] of 0.668.
Work on ARWRVGLWRGAC yielded a protein stability index [1] of 0.123 and a protein stability index [2] of 0.681.
In the case of ARWRVGLWRGASD, the protein stability index [1] is reported as 0.688 and the protein stability index [2] is reported as 0.686.
In the case of ARWRVGLWRGASF, the protein stability index [1] is reported as 0.661 and the protein stability index [2] is reported as 0.679.
Sequence ARWRVGLWRGASI has a protein stability index [1] of 0.652 and a protein stability index [2] of 0.665.
Work on ARWRVGLWRGASQ yielded a protein stability index [1] of 0.661 and a protein stability index [2] of 0.646.
ARWRVGLWRGAST was tested, and the protein stability index [1] was 0.659 and the protein stability index [2] was 0.682.
Work on ARWRVGLWRGIS yielded a protein stability index [1] of 0.109 and a protein stability index [2] of 0.68.
Work on ARWRVGLWRGKS yielded a protein stability index [1] of 0.653 and a protein stability index [2] of 0.679.
In the case of ARWRVGLWRGSS, the protein stability index [1] is reported as 0.516 and the protein stability index [2] is reported as 0.686.
For ARWRVGLWRGTS, the protein stability index [1] was 0.318 and the protein stability index [2] was 0.682.
ARWRVGLWRPAS gave a protein stability index [1] of 0.645 and a protein stability index [2] of 0.691.
Work on ARWRVGLWRSAS yielded a protein stability index [1] of 0.102 and a protein stability index [2] of 0.693.
ARWRVPLWRGAS showed a protein stability index [1] of 0.646 and a protein stability index [2] of 0.684.
ARWTVGLWRGAS showed a protein stability index [1] of 0.495 and a protein stability index [2] of 0.692.
ARYRVGLWRGAS was tested, and the protein stability index [1] was 0.567 and the protein stability index [2] was 0.668.
With CLIQPLPVQFLN the protein stability index [1] was 0.103 and the protein stability index [2] was 0.548.
For CRSCGYKFRTNN, the protein stability index [1] was 0.243 and the protein stability index [2] was 0.708.
Sequence CSSCGYKFRTNN has a protein stability index [1] of 0.216 and a protein stability index [2] of 0.695.
CTGCGYKFRTNN was tested, and the protein stability index [1] was 0.231 and the protein stability index [2] was 0.678.
Sequence CTICGYKFRTNN has a protein stability index [1] of 0.27 and a protein stability index [2] of 0.67.
For CTQCGYKFRTNN, the protein stability index [1] was 0.25 and the protein stability index [2] was 0.697.
CTRCGYKFRTNN showed a protein stability index [1] of 0.231 and a protein stability index [2] of 0.699.
Sequence CTSCGNKFRTNN has a protein stability index [1] of 0.52 and a protein stability index [2] of 0.695.
Sequence CTSCGYDFRTNN has a protein stability index [1] of 0.639 and a protein stability index [2] of 0.691.
Work on CTSCGYKFRTHN yielded a protein stability index [1] of 0.325 and a protein stability index [2] of 0.717.
Sequence CTSCGYKFRTMN has a protein stability index [1] of 0.186 and a protein stability index [2] of 0.682.
Work on CTSCGYKFRTNK yielded a protein stability index [1] of 0.689 and a protein stability index [2] of 0.704.
Work on CTSCGYKFRTNND yielded a protein stability index [1] of 0.692 and a protein stability index [2] of 0.7.
In the case of CTSCGYKFRTNNN, the protein stability index [1] is reported as 0.674 and the protein stability index [2] is reported as 0.677.
